Measurements taken from article PMC11220700, “Activation and Purification of ß‐Glucocerebrosidase by Exploiting its Transporter LIMP‐2 – Implications for Novel Treatment Strategies in Gaucher's and Parkinson's Disease” (Advanced Science, 2024).
Numbering of substitutions follows the chain as printed. *: point of attachment. Biotin = O=C1N[C@H]2[C@H](CS[C@H]2CCCCC(=O)*)N1

T1: His‐tagged GCase wt (10xHis, C‐terminal, TEV‐cleavable) (human, UniProt P04062-1 40-536, red fluorescent dye NT-637 on amines (RED-NHS labelling kit), for MST)
T1 construct: human beta-glucocerebrosidase (GCase) wild type, secreted from cells transfected with pCMV-3-GBA-His; also called GCase-His; source: HEK 293F, transfected, purified from conditioned medium (Ni-NTA); not shown: 10xHis (TEV-cleavable), C-terminal, kept
T1 sequence (looked up): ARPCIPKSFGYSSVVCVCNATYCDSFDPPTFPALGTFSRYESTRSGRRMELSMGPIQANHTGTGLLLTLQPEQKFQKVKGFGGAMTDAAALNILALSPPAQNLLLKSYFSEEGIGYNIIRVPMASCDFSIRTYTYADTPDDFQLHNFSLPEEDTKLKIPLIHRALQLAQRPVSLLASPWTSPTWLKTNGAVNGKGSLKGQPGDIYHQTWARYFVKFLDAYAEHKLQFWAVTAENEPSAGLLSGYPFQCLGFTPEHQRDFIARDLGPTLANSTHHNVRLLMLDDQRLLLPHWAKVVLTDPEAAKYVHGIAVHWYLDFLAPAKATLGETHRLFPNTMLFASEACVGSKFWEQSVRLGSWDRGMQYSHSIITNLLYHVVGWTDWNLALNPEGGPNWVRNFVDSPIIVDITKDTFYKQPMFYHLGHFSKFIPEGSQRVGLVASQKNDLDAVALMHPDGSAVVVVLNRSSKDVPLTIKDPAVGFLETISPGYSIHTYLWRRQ

T2: untagged human GCase wt (human, UniProt P04062-1 40-536)
T2 construct: human beta-glucocerebrosidase (GCase) wild type, untagged, secreted into the medium; also called wt GCase; beta-glucocerebrosidase; source: HEK 293F, transfected (with sLIMP-2 or alone), in conditioned medium; co-purified with sLIMP-2 (Ni-NTA, SEC)
T2 sequence (looked up): T1 sequence (looked up)

T3: untagged GCase E326K (human, UniProt P04062-1 40-536, E326K)
T3 construct: human beta-glucocerebrosidase (GCase), disease-associated variant E326K, untagged; printed also as p.Glu365Lys (NM_000157.4); numbers count on: the mature protein; also called E326K GCase; p.E326K; source: HEK 293F, transfected (with sLIMP-2 or alone), in conditioned medium; co-purified with sLIMP-2 (Ni-NTA, SEC)
T3 sequence (looked up): T1 sequence (looked up) with E326K

T4: untagged GCase N370S (human, UniProt P04062-1 40-536, N370S)
T4 construct: human beta-glucocerebrosidase (GCase), disease-associated variant N370S, untagged; numbers count on: the mature protein; also called N370S GCase; p.N370S; source: HEK 293F, transfected with sLIMP-2, in conditioned medium; co-purified with sLIMP-2 (Ni-NTA, SEC)
T4 sequence (looked up): T1 sequence (looked up) with N370S

B1: L2H5‐wt peptide (LIMP‐2‐derived helix 5 peptide) (peptide)
peptide: Biotin-KFERQGSGSQVHFLREIIEAMLKAYQSGSGYGRKKRRQRRR-NH2
notes: also called LIMP-2-derived peptide; LIMP-2-mimicking peptide; source: synthetic peptide (BioCat, >95% purity)
B2: soluble LIMP‐2 (sLIMP‐2), secreted LIMP‐2 ectodomain (domain or fragment, human, UniProt Q14108 36-431, looked up)
chain: SIEKKIVLRNGTEAFDSWEKPPLPVYTQFYFFNVTNPEEILRGETPRVEEVGPYTYRELRNKANIQFGDNGTTISAVSNKAYVFERDQSVGDPKIDLIRTLNIPVLTVIEWSQVHFLREIIEAMLKAYQQKLFVTHTVDELLWGYKDEILSLIHVFRPDISPYFGLFYEKNGTNDGDYVFLTGEDSYLNFTKIVEWNGKTSLDWWITDKCNMINGTDGDSFHPLITKDEVLYVFPSDFCRSVYITFSDYESVQGLPAFRYKVPAEILANTSDNAGFCIPEGNCLGSGVLNVSICKNGAPIIMSFPHFYQADERFVSAIEGMHPNQEDHETFVDINPLTGIILKAAKRFQINIYVKKLDDFVETGDIRTMVFPVMYLNESVHIDKETASRLKSMINT
notes: lysosomal integral membrane protein 2 (LIMP-2), human, luminal domain, amino acids 36-431; also called LIMP-2 shuttle; sLIMP-2-shuttle; source: HEK 293F, transfected, secreted into conditioned medium; purified (Ni-NTA, SEC); not shown: 10xHis (TEV-cleavable), C-terminal, kept

What was measured:
[1] = target: T1, His‐tagged GCase wt (10xHis, …); assay: MST; GCase-His labelled, L2H5-wt titrated; lysosomal pH (pH 5.0); saturation not reached; conditions: both partners purified
[2] = target: T1, His‐tagged GCase wt (10xHis, …); assay: MST; GCase-His labelled with NT-637, fixed at 25 nM; L2H5-wt titrated in a twofold series of 16 from 125 µM; 50 mM sodium citrate + 0.05% Tween-20, pH 7.4 (cytosolic pH); ambient temperature; the two highest concentrations left out of the Kd fit; conditions: both partners purified
[3] = target: T2, untagged human GCase wt; assay: pull-down; Ni-NTA beads in conditioned medium of HEK 293F cells expressing His-tagged sLIMP-2 with untagged GCase (96 h); overnight at 4 °C; wash with 20 mM imidazole, elution with 400 mM imidazole, pH 8.0; western blot; conditions: partners not purified
[4] = target: T3, untagged GCase E326K; assay: as above; conditions: partners not purified
[5] = target: T4, untagged GCase N370S; assay: as above; conditions: partners not purified

Binder	Kd [1]	Kd [2]	binding result [3]	binding result [4]	binding result [5]
B1	~98 µM	0.153 ± 0.037 µM	–	–	–
B2	–	–	binds	binds	binds
